Data reported in US20150306193.

Biological target: T1, purified mouse serpinB13 (GenScript) (UniProt Q8CDC0)
T1 sequence: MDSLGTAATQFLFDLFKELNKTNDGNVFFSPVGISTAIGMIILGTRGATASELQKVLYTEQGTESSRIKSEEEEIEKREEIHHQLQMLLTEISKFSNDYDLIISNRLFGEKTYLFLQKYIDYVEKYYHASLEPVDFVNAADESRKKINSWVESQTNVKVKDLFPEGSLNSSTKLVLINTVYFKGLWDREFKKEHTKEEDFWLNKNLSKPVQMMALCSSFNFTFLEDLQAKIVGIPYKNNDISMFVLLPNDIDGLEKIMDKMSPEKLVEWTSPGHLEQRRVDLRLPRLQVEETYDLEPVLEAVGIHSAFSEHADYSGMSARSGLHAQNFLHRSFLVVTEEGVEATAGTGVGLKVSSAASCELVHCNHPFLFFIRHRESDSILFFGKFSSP

## Cathepsin L (Calbiochem)
  cleavage of (CBZ-Phe-Arg)2-R110 substrate by cathepsin L in the presence of serpinB13 (fold induction of maximum fluorescence over background): cathepsin L-mediated cleavage of the fluorescent substrate (CBZ-Phe-Arg)2-R110 from inhibition by serpinB13 in vitro
